T1: ASV integrase WT (avian sarcoma virus, UniProt P03354 1281-1567)
T1 sequence: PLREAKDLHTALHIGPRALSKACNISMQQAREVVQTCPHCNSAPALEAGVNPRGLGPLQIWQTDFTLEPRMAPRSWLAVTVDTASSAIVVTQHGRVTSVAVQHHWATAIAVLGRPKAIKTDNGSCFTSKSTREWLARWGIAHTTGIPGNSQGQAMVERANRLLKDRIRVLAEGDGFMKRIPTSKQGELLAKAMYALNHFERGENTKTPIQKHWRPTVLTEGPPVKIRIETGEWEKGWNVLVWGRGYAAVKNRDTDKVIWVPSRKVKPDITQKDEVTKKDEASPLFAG

B1: NH2-3.11 linear (dsDNA)
DNA 1: AATGTAGTCTTATGCAATACTC
DNA 2: GAGTATTGCATAAGACTACATT
modifications: 5-aminouridine replacing T at position 11 of strand 3 (paper numbering), carrying aryl diazirine
B2: NH2-4.12 linear (dsDNA)
DNA 1: GAGTATTGCATAAGACTACATT
DNA 2: AATGTAGTCTTATGCAATACTC
modifications: 5-aminouridine at position 12 of strand 4 (paper numbering), carrying aryl diazirine

Target: T1, ASV integrase WT
Experiment: photocrosslinking; DNA-borne diazirine; among highest efficiency; Photocrosslinking: 40 mM HEPES pH 6.5, 150 mM NaCl, 5% glycerol, 0 C, 10 uM IN, 0.05 uM DNA; disulfide: Buffer 1 adjusted to 250-300 mM NaCl, pH 7.5, on ice, +/-10 mM MgCl2
Conditions: protein: recombinant; label: 32P; blunt

Binder | binding result
B1 | binds
B2 | binds

From paper PMC3228729, “Localization of ASV Integrase-DNA Contacts by Site-Directed Crosslinking and their Structural Analysis”
